What was measured:
[1] = system: T1, CC(=O)c1ccc[n+]([C@@H]2O[C@H](COP(=O)([O-])OP(=O)(O)OC[C@H]3O[C@@H](n4cnc5c(N)ncnc54)[C@H](O)[C@@H]3O)[C@@H](O)[C@H]2O)c1; experiment: enzyme kinetics (Km), lactate to pyruvate, comparison enzyme; type: biochemical, Babesia microti; details: varied: cofactor
T1 construct: recombinant rBmLDH

[2] = biological target: recombinant Babesia orientalis lactate dehydrogenase (Babesia orientalis); experiment: native gel or EMSA; 8% blue native-PAGE of purified rBoLDH, without sodium dodecyl sulfate; ~160 kDa band
[3] = biological target: recombinant Babesia orientalis lactate dehydrogenase (Babesia orientalis); experiment: crystal structure; apo rBoLDH, hanging drop vapour diffusion at 20°C, 1 M lithium chloride, 0.1 M sodium acetate, 25-30% PEG 6000; space group P1, 2.67 Å

Row | Substance | Km [1] [µM] | stoichiometry N [2] | stoichiometry N [3]
1 | Babesia microti lactate dehydrogenase (BmLDH) (Babesia microti strain RI) | 880 ± 120 |  | 
2 | recombinant Babesia orientalis lactate dehydrogenase (enzyme) |  | 4 | 4
